Source: patent publication US20040248211A1, “ICAM-related protein” (priority 1992, published 2004)
Numbering of substitutions follows the chain as printed. Names and notes keep the numbering of the source.

T1: ICAM-R (Homo sapiens, UniProt P32942)
T1 construct: express the full length ICAM-1 and ICAM-R proteins, respectively; expressed in transfected cells; host or cells: COS cells, DEAE-dextran, plasmid pcDNA1AmpICAM-R
T1 sequence (P32942 30-547): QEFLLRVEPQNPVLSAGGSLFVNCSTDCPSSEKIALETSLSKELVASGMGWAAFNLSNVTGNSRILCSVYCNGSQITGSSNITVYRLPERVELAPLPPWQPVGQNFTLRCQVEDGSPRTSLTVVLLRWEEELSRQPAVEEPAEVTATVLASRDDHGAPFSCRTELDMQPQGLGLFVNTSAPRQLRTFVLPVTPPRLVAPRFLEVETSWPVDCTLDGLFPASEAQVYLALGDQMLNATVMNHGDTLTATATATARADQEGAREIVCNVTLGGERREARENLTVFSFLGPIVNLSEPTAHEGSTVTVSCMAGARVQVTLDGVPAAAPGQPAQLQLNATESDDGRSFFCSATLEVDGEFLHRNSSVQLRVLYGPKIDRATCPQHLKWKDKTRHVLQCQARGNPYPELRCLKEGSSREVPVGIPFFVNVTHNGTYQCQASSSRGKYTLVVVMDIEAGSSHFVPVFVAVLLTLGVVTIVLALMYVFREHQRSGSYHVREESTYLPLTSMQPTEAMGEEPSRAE

B1: miHu/VHI/HuVK: ICR-8.1 miHuVHI (Val2 to Ile2) heavy chain with humanized VK (antibody, V domains shown)
VH: QIQLVQSGAEVKKPGASVKVSCKASGYTFTDCIILWVRQAPGQGLEWMGKINPYFGTTTYAQKFQGRVTITADTSTSTAYMELSSLRSEDTAVYYCARKEAYPDAMDYWGQGTLVTVSS
VL: DIVMTQSPLSLPVTPGEPASISCRSSQSLVHSNGDTYLHWYLQKPGQSPQLLIYKVSNRFSGVPDRFSGSGSGTDFTLKISRVEAEDVGVYYCSQSTHVPYTFGQGTKVEIK
B2: VCAM-1/IgG: soluble VCAM-1 IgG1 chimeric fusion protein (protein)
chain: FKIETTPESRYLAQIGDSVSLTCSTTGCESPFFSWRTQIDSPLNGKVTNEGTTSTLTMNPVSFGNEHSYLCTATCESRKLEKGIQVEIYSFPKDPEIHLSGPLEAGKPITVKCSVADVYPFDRLEIDLLKGDHLMKSQEFLEDADRKSLETKSLEVTFTPVIEDIGKVLVCRAKLHIDEMDSVPTVRQAVKELQVYISPKNTVISVNPSTKLQEGGSVTMTCSSEGLPAPEIFWSKKLDNGNLQHLSGNATLTLIAMRMEDSGIYVCEGVNLIGKNRKEVELIVQEKPFTVEISPGPRIAAQIGDSVMLTCSVMGCESPSFSWRTQIDSPLSGKVRSEGTNSTLTLSPVSFENEHSYLCTVTCGHKKLEKGIQVELYSFPRDPEIEMSGGLVNGSSVTVSCKVPSVYPLDRLEIELLKGETILENIEFLEDTDMKSLENKSLEMTFIPTIEDTGKALVCQAKLHIDDMEFEPKQRQSTQTLYVNVAPRDTTVLVSPSSILEEGSSVNMTCLSQGFPAPKILWSRQLPNGELQPLSENATLTLISTKMEDSGVYLCEGINQAGRSRKEVELIIQVTPKDIKLTAFPSESVKEGDTVIISCTCGNVPETWIILKKKAETGDTVLKSIDGAYTIRKAQLKDAGVYECESKNKVGSQLRSLTLDVQGRENNKDYFSPE
modifications: left off: a dimerising Fc or GST
notes: soluble VCAM-1 IgG1 chimeric fusion protein
B3: shICAM-R: soluble human ICAM-R truncated at amino acid 457, baculovirus expressed (protein)
chain: QEFLLRVEPQNPVLSAGGSLFVNCSTDCPSSEKIALETSLSKELVASGMGWAAFNLSNVTGNSRILCSVYCNGSQITGSSNITVYGLPERVELAPLPPWQPVGQNFTLRCQVEGGSPRTSLTVVLLRWEEELSRQPAVEEPAEVTATVLASRDDHGAPFSCRTELDMQPQGLGLFVNTSAPRQLRTFVLPVTPPRLVAPRFLEVETSWPVDCTLDGLFPASEAQVYLALGDQMLNATVMNHGDTLTATATATARADQEGAREIVCNVTLGGERREARENLTVFSFLGPIVNLSEPTAHEGSTVTVSCMAGARVQVTLDGVPAAAPGQTAQLQLNATESDDGRSFFCSATLEVDGEFLHRNSSVQLRVLYGPKIDRATCPQHLKWKDKTRHVLQCQARGNPYPELRCLKEGSSREVPVGIPFFVNVTHNGTYQCQASSSRGKYTLVVVMDIEAFSSH
B4: D231H-Ig: ICAM-R/IgG variant with reduced VLA-4 binding, full LFA-1 binding (protein)
chain: B3 chain with D231H
modifications: left off: a dimerising Fc or GST
B5: E37T-Ig: ICAM-R/IgG variant which binds VLA-4 but not LFA-1 (protein)
chain: B3 chain with E37A, T38S
modifications: left off: a dimerising Fc or GST

How the values were obtained:
ICAM-R = molecular target: T1, ICAM-R; experiment: Blocking of biotinylated murine ICR-8.1 binding
Source text: However, antibodies containing the humanized heavy chain with the Ile2 mutation show an approximate 2-fold improvement in binding over the aforementioned antibodies. In experiments in blocking the binding of biotinylated murine ICR-8.1 to ICAM-R, the miHu/VHI/HuVK and miHuVHI/MuVK antibodies compete about 2-fold less well than the murine antibody itself.

[1] = molecular target: T2, αd/CD18 transfected CHO cells (Homo sapiens, UniProt P05107+Q13349); experiment: Flow cytometry binding of soluble chimeras; settings: chimera 5 μg/ml
T2 construct: expressed in transfected cells; host or cells: CHO cells
Method: Binding of αd/CD18-transfected cells to soluble ICAM-1/IgG, ICAM-R/IgG, or VCAM-1/IgG chimeras was determined by flow cytometry. Approximately one million αd/CD18-transfected CHO cells (grown in spinner flasks for higher expression) per measurement were suspended in 100 μl binding buffer (RPMI and 1% BSA) with or without 10 μg/ml anti-CD18 antibody. After a 20 minute incubation at room temperature, the cells were washed in binding buffer and soluble ICAM-1/IgG or ICAM-R/IgG chimera was added to a final concentration of 5 μg/ml. Binding was allowed to proceed for 30 minute at 37° C., after which the cells were washed three times and resuspended in 100 μl binding buffer containing FITC-conjugated sheep anti-human IgG1 at a 1:100 dilution. After a 30 minute incubation, samples were washed three times and suspended in 200 μl binding buffer for analysis with a Becton Dickinson FACScan.

[2] = molecular target: T2, αd/CD18 transfected CHO cells; experiment: Binding of transfected CHO cells to immobilized chimeras; assay type: cell-based; settings: immobilized chimera
Method: In replicate assays, soluble ICAM-1, ICAM-R, or VCAM-1 IgG1 chimeric fusion proteins were immobilized on plastic and the ability of αd/CD18 or LFA-1 transfected CHO cells (see co-owned, concurrently filed U.S. patent application Ser. No. 08/286,889 identified as attorney docket No. 32168) to bind the immobilized ligand was determined. Transfected cells were labeled internally with calcein, washed in binding buffer (RPMI with 1% BSA), and incubated in either buffer only (with or without 10 ng/ml PMA) or buffer with anti-CD18 at 10 μg/ml. Transfected cells were added to 96-well Immulon 4 microtiter plates previously coated with soluble ICAM-1/Ig, ICAM-R/Ig or VCAM-1/Ig chimera, or bovine serum albumin (BSA) as a negative control. Wells were blocked with 1% BSA in PBS prior to addition of labeled cells. After washing the plates by immersion in PBS with 0.1% BSA for 20 minutes, total fluorescence remaining in each well was measured using a Cytofluor 2300 (Millipore, Milford, Mass.).

[3] = test system: Human peripheral blood lymphocytes; experiment: Costimulation of lymphocytes by soluble ICAM-R; assay type: cell-based
Method: shICAM-R (Example 9) was assayed for the ability to costimulate human lymphocyte activation. Human peripheral blood lymphocytes (PBL) were obtained by Ficoll-Hypaque centrifugation and 2×10^5 cells per well were incubated in the presence of either media, plate bound shICAM-R, plate bound anti-CD3 (OKT3) or a combination of plate bound anti-CD3 and shICAM-R. At 17 hours and 4 days after initiation of culture cells were removed, stained with monoclonal antibodies to human lymphocyte activation antigens and analyzed by flow cytometry.

SKW3 cells = experiment: Adhesion of PMA-activated SKW3 cells to plate-bound protein; assay type: cell-based, human; settings: PMA-treated cells
Method: The partially purified shICAM-R protein was assayed for binding to SKW3 cells that were pretreated with phorbol ester as described in Example 7 to activate LFA-1-dependent adhesion. The ICAM-R protein was coated onto 96-well Immulon 4 (Dynatech) plates after adjusting the lectin eluate to 25 mM carbonate pH 9.6 and incubated overnight at 4° C. The plates were washed two times with PBS, blocked for 30 minutes at 37° C. with 200 ul/well PBS, 1% BSA, and washed again with PBS before adding cells. SKW3 cells were washed in serum-free RPMI (Gibco), labelled with Calcein-AM (Molecular Probes), and stimulated with PMA. Cells were then added to the plates and incubated for 1 hour at 37° C. The plates were inverted in prewarmed PBS, 1% BSA and were incubated for 30 minutes. The plates were then removed and half of the contents of each well was aspriated. The plates were then scanned with a fluorescence microscope and an automated fluorescence reader.
Peak fractions from wtHis6, E37His6 and mock transfectants were concentrated about 6.5 fold using Centricon 30 (Amicon) centrifugation units. The resultant concentrates were adjusted to equal vols. (0.34 ml) using PBS-D. Control soluble ICAM-R (15 ug/ml) (Example 9) in carbonate buffer pH 9.6 or in buffer D with 40 mM imidazole were made up. […]

T cells [4] = experiment: IL-2 production in response to anti-CD3 and ICAM-R proteins; assay type: cell-based, human; settings: in comparison to the HSA control
LFA-1 = LFA-1 (Homo sapiens, UniProt P05107+P20701); experiment: Integrin binding of ICAM-R/IgG variants
T cells [5] = experiment: T-cell proliferation in response to CD3 mAb with recombinant ICAM-R; assay type: cell-based, human; settings: in comparison to the HSA control
Method: T cell costimulation by recombinant ICAM-R and CD3 antibody in the presence of monoclonal antibodies which block ICAM-R adhesion to VLA-4 was measured (Example 21F). The monoclonal antibodies tested were specific for domain 3 of ICAM-R or the α4 subunit of VLA-4.
Both variants were tested for effects on T-cell proliferation in response to CD3 mAb. […] Similar levels of costimulation were induced by the LFA-1 binding D231H-Ig or wild-type ICAM-R/Ig chimera which binds both LFA-1 and VLA-4.

VLA-4 = VLA-4 (Homo sapiens, UniProt P05556+P13612); experiment: Integrin binding of ICAM-R/IgG variants

Chain of LFA-1 (P20701 26-1170): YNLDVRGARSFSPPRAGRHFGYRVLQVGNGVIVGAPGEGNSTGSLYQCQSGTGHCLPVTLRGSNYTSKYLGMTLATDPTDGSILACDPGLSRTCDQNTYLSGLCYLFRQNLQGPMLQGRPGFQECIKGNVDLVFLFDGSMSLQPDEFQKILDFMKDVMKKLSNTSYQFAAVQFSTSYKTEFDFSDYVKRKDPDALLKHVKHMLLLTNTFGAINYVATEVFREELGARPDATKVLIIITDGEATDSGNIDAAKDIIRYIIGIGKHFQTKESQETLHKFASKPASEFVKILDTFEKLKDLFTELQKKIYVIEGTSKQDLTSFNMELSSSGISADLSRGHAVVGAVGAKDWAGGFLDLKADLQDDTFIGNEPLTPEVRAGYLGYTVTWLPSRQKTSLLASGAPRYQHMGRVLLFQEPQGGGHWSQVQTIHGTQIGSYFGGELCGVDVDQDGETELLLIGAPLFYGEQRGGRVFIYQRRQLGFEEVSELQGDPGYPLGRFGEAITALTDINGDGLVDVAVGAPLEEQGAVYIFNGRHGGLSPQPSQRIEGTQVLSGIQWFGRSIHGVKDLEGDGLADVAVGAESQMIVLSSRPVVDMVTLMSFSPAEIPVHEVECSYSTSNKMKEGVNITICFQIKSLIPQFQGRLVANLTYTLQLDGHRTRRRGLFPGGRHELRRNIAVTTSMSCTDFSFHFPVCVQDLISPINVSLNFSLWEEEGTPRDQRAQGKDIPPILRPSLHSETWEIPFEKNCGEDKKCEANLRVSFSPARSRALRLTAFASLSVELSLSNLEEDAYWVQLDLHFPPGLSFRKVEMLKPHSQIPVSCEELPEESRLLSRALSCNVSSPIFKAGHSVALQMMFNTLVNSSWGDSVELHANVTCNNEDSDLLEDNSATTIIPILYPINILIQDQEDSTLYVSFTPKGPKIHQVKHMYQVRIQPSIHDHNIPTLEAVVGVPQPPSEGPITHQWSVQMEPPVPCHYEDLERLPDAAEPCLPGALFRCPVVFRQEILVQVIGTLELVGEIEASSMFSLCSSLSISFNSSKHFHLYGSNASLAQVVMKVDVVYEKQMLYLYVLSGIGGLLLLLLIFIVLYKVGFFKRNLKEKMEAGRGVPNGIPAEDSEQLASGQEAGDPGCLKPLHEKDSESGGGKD
Chain of LFA-1 (P05107 23-769): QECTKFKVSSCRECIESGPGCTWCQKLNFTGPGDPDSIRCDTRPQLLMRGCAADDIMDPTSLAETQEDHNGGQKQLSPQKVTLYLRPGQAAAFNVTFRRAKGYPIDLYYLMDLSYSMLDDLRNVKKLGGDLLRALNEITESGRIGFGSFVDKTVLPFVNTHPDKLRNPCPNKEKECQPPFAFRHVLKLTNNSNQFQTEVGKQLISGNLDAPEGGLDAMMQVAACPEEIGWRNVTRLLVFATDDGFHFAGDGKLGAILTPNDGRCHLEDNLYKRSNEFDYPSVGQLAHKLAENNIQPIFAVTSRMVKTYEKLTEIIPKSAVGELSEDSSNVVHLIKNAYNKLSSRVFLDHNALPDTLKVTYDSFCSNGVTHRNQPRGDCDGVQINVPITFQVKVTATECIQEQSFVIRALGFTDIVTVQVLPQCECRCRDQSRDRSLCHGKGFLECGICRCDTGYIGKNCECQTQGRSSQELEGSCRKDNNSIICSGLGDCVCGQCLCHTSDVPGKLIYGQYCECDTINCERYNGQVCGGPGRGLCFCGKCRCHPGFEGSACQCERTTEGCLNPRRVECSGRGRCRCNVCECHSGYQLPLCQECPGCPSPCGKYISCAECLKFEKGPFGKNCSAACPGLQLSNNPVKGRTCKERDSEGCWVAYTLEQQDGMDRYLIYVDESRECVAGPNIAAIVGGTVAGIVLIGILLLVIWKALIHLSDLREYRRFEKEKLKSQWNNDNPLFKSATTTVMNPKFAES
T2 sequence (Q13349 18-1161): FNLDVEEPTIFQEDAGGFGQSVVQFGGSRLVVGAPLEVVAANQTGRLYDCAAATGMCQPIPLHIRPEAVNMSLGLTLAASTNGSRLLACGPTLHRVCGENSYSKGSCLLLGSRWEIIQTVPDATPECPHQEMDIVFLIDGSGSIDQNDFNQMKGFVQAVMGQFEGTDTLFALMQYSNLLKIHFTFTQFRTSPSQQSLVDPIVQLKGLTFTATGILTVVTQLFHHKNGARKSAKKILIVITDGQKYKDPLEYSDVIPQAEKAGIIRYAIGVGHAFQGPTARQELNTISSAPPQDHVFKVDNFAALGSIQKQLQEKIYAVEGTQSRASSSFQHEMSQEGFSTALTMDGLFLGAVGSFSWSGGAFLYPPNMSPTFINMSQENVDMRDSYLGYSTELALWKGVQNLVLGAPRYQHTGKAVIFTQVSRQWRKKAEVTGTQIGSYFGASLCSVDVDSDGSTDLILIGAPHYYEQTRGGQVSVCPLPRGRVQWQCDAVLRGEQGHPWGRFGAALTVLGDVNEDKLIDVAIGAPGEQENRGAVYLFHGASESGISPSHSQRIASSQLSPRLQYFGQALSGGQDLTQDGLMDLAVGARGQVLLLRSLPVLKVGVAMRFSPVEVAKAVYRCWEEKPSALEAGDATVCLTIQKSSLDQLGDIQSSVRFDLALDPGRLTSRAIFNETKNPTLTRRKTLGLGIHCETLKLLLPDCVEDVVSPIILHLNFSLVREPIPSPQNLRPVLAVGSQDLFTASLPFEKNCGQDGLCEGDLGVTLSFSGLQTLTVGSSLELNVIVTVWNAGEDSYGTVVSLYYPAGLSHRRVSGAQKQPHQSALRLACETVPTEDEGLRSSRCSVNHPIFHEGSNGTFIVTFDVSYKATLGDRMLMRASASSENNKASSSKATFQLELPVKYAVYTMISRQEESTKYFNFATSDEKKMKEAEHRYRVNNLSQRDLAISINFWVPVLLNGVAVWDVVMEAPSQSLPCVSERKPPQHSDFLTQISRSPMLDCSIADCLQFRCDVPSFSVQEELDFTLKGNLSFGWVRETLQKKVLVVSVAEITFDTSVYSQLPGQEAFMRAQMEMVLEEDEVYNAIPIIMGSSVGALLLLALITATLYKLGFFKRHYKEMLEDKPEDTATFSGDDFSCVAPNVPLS
T2 sequence (P05107 23-769): as the sequence (P05107 23-769) above

Molecule | IL-2 production in response to CD3 mAb (T cells [4]) | LFA-1 binding (LFA-1) | T-cell proliferation in response to CD3 mAb (T cells [5]) | VLA-4 binding (VLA-4) | further results
B1 |  |  |  |  | compete less well than murine ICR-8.1 in blocking binding of biotinylated murine ICR-8.1 (ICAM-R): about 2 fold
B2 |  |  |  |  | αd/CD18 transfectants binding soluble chimera [1]: no binding; increase in binding of αd/CD18 co-transfectants over BSA coated wells [2]: No detectable binding
B3 | enhanced IL-2 production |  |  |  | expression of activation antigens ICAM-1, IL-2 receptor, transferrin receptor ([3]; 4 days, plate bound anti-CD3 0.5 ug/well and protein 100 ng/well, versus anti-CD3 alone): elevated levels of the activation antigens ICAM-1, IL-2 receptor and transferrin receptor; expression of activation antigens ICAM-1, IL-2 receptor, transferrin receptor ([3]; protein 100 ng/well alone, versus media alone): no increased levels of these activation antigens; adhesion of SKW3 cells to plate bound protein (SKW3 cells): demonstrated adhesion of phorbol ester-activated lymphocytes
B4 | to a lesser extent | retaining full LFA-1 binding capacity | enhanced CD3 mAb driven T-cell proliferation | reduced VLA-4 binding capacity | 
B5 | inhibited IL-2 production | not LFA-1 | markedly inhibited T-cell proliferation | binds VLA-4 | 
